This note sets out measurements from publication PMC5148741 (Journal of the American Chemical Society, 2016).

Ends that are not written are not given here. * marks the point of attachment. FITC = O=C1OC2(c3ccc(O)cc3Oc3cc(O)ccc32)c2ccc(NC(=S)*)cc21

The target of one experiment is TbtF. The experiment in a line: fluorescence polarisation.
One may read the IC50 as the concentration at which inhibition is half-maximal. For the molecule MDANDLPMDVFELADSGVAVESLTAGHGMTEVGASCNCFCYICCSCSSA [TbtA L(−32)A], the IC50 came to 1580 ± 360 nM.

Consider MDLNDLPMDVFELADSGVAVESLTAGHGATEVGASCNCFCYICCSCSSA [TbtA M(−6)A], for which it took 450 ± 30 nM to reach half-maximal inhibition (IC50). This IC50 is about 3.5-fold lower than that of the molecule before.

The molecule MDLNDLPMDVFELADAGVAVESLTAGHGMTEVGASCNCFCYICCSCSSA [TbtA S(−19)A] registered a half-maximal inhibitory concentration (IC50) of 1570 ± 460 nM.

Molecule MDLNDLPMDVFELAASGVAVESLTAGHGMTEVGASCNCFCYICCSCSSA [TbtA D(−20)A] gave an IC50 of 1450 ± 460 nM.

MDLNDLPMDVFELADSGVAAESLTAGHGMTEVGASCNCFCYICCSCSSA [TbtA V(−15)A] had an IC50 of 630 ± 60 nM.

The molecule MDLADLPMDVFELADSGVAVESLTAGHGMTEVGASCNCFCYICCSCSSA [TbtA N(−31)A] came in with an IC50 of 570 ± 70 nM.

MALNDLPMDVFELADSGVAVESLTAGHGMTEVGASCNCFCYICCSCSSA [TbtA D(−33)A] displayed a concentration for half-maximal inhibition (IC50) of 990 ± 220 nM. This IC50 lies about 1.7-fold higher than the previous one.

Turning to MDLNDLPMDVFELADSGVAVASLTAGHGMTEVGASCNCFCYICCSCSSA [TbtA E(−14)A], it took 1370 ± 150 nM to reach half-maximal inhibition (IC50).

MDLNDLPMDVFELADSGVAVESLTAGHGMTAVGASCNCFCYICCSCSSA [TbtA E(−4)A] yielded a half-inhibitory concentration (IC50) of 530 ± 30 nM.

Turning to MDLNDLPMDVFELADSGAAVESLTAGHGMTEVGASCNCFCYICCSCSSA [TbtA V(−17)A], the IC50 was determined as 490 ± 50 nM.

In turn, MDLNDLPMDVFALADSGVAVESLTAGHGMTEVGASCNCFCYICCSCSSA [TbtA E(−23)A] registered an IC50 of 1270 ± 150 nM.

In turn, MDLNDLPMDVFELADSGVAVESLTAGHGMTEAGASCNCFCYICCSCSSA [TbtA V(−3)A] had an IC50 of 580 ± 50 nM.

With MDLNDAPMDVFELADSGVAVESLTAGHGMTEVGASCNCFCYICCSCSSA [TbtA L(−29)A], the IC50 is above 10000 nM.

On to MDLNDLPMDVFELADSGVAVESLTAGHGMTEVGASCNCFCYICCSCSSA [TbtA wild-type], for which the half-maximal inhibitory concentration (IC50) was determined as 670 ± 30 nM.

Take MDLNDLPMDAFELADSGVAVESLTAGHGMTEVGASCNCFCYICCSCSSA [TbtA V(−25)A]: the half-maximal inhibitory concentration (IC50) is 620 ± 40 nM.

In the case of MDLNALPMDVFELADSGVAVESLTAGHGMTEVGASCNCFCYICCSCSSA [TbtA D(−30)A], half-maximal inhibition (IC50) required 940 ± 200 nM.

MDLNDLPMAVFELADSGVAVESLTAGHGMTEVGASCNCFCYICCSCSSA [TbtA D(−26)A] gave an IC50 of 8230 ± 1450 nM.

Molecule MDLNDLPMDVAELADSGVAVESLTAGHGMTEVGASCNCFCYICCSCSSA [TbtA F(−24)A] registered an IC50 above 10000 nM.

Molecule MDLNDLPMDVFELADSGVAVESLAAGHGMTEVGASCNCFCYICCSCSSA [TbtA T(−11)A] came in with an IC50 of 510 ± 60 nM.

As for MDLNDLPMDVFELADSGVAVEALTAGHGMTEVGASCNCFCYICCSCSSA [TbtA S(−13)A], 1410 ± 70 nM corresponded to half-maximal inhibition (IC50).

MDLNDLPMDVFELADSGVAVESLTAGAGMTEVGASCNCFCYICCSCSSA [TbtA H(−8)A] had an IC50 of 980 ± 60 nM. The IC50 values of the last two molecules are within 1.5-fold of each other.

For the molecule MDLNDLPMDVFELADSGVAVESATAGHGMTEVGASCNCFCYICCSCSSA [TbtA L(−12)A], half-maximal inhibition (IC50) was put at 700 ± 40 nM.

A further experiment addresses MBP-TbtD. Kind of experiment: fluorescence polarisation. Background: Polarisation of emitted light reports the rotation of a fluorescent probe.
MDANDLPMDVFELADSGVAVESLTAGHGMTEVGASCNCFCYICCSCSSA [TbtA L(−32)A] yielded an IC50 of 1710 ± 470 nM.

In the case of MDLNDLPMDVFELADSGVAVESLTAGHGATEVGASCNCFCYICCSCSSA [TbtA M(−6)A], the IC50 amounted to 490 ± 70 nM.

MDLNDLPMDVFELADAGVAVESLTAGHGMTEVGASCNCFCYICCSCSSA [TbtA S(−19)A]: the IC50 came to 910 ± 110 nM.

In turn, MDLNDLPMDVFELAASGVAVESLTAGHGMTEVGASCNCFCYICCSCSSA [TbtA D(−20)A] gave an IC50 of 4130 ± 1620 nM.

MDLNDLPMDVFELADSGVAAESLTAGHGMTEVGASCNCFCYICCSCSSA [TbtA V(−15)A] displayed an IC50 of 1060 ± 60 nM. Against the preceding molecule, the IC50 is about 3.9-fold lower.

With MDLADLPMDVFELADSGVAVESLTAGHGMTEVGASCNCFCYICCSCSSA [TbtA N(−31)A], the concentration for half-maximal inhibition (IC50) came to 1130 ± 80 nM.

With MALNDLPMDVFELADSGVAVESLTAGHGMTEVGASCNCFCYICCSCSSA [TbtA D(−33)A], the IC50 stood at 720 ± 70 nM.

In turn, MDLNDLPMDVFELADSGVAVASLTAGHGMTEVGASCNCFCYICCSCSSA [TbtA E(−14)A] registered an IC50 of 4470 ± 960 nM.

MDLNDLPMDVFELADSGVAVESLTAGHGMTAVGASCNCFCYICCSCSSA [TbtA E(−4)A] displayed an IC50 of 700 ± 20 nM.

MDLNDLPMDVFELADSGAAVESLTAGHGMTEVGASCNCFCYICCSCSSA [TbtA V(−17)A] registered an IC50 of 690 ± 40 nM.

On to MDLNDLPMDVFALADSGVAVESLTAGHGMTEVGASCNCFCYICCSCSSA [TbtA E(−23)A], for which the concentration for half-maximal inhibition (IC50) was 3460 ± 570 nM. This IC50 lies about 5-fold higher than the previous one.

In the case of MDLNDLPMDVFELADSGVAVESLTAGHGMTEAGASCNCFCYICCSCSSA [TbtA V(−3)A], the IC50 worked out at 1350 ± 140 nM.

In turn, MDLNDAPMDVFELADSGVAVESLTAGHGMTEVGASCNCFCYICCSCSSA [TbtA L(−29)A] yielded an IC50 above 10000 nM.

Molecule MDLNDLPMDVFELADSGVAVESLTAGHGMTEVGASCNCFCYICCSCSSA [TbtA wild-type] showed an IC50 of 610 ± 30 nM.

For MDLNDLPMDAFELADSGVAVESLTAGHGMTEVGASCNCFCYICCSCSSA [TbtA V(−25)A], the half-inhibitory concentration (IC50) stood at 2250 ± 200 nM.

As to MDLNALPMDVFELADSGVAVESLTAGHGMTEVGASCNCFCYICCSCSSA [TbtA D(−30)A], the IC50 worked out at 7280 ± 770 nM.

On to MDLNDLPMAVFELADSGVAVESLTAGHGMTEVGASCNCFCYICCSCSSA [TbtA D(−26)A], for which the IC50 stood at 6000 ± 410 nM.

For MDLNDLPMDVAELADSGVAVESLTAGHGMTEVGASCNCFCYICCSCSSA [TbtA F(−24)A], the IC50 stood at 1510 ± 90 nM.

Turning to MDLNDLPMDVFELADSGVAVESLAAGHGMTEVGASCNCFCYICCSCSSA [TbtA T(−11)A], the half-maximal inhibitory concentration (IC50) turned out to be 450 ± 20 nM.

Turning to MDLNDLPMDVFELADSGVAVEALTAGHGMTEVGASCNCFCYICCSCSSA [TbtA S(−13)A], the IC50 is 2760 ± 180 nM.

Take MDLNDLPMDVFELADSGVAVESLTAGAGMTEVGASCNCFCYICCSCSSA [TbtA H(−8)A]: the IC50 was 3680 ± 310 nM. This IC50 and that of the molecule before are within 1.5-fold of each other.

With MDLNDLPMDVFELADSGVAVESATAGHGMTEVGASCNCFCYICCSCSSA [TbtA L(−12)A], inhibition was half-maximal at 3290 ± 680 nM (IC50).

For a further experiment, the target named is maltose-binding protein (MBP) tagged TbtB. The experiment in a line: fluorescence polarisation.
One may read the Kd as the constant that tells how readily two partners part at equilibrium. High values mean weaker binding, low ones tighter binding. In turn, {FITC}-MDLNDLPMDVFELADSGVAVESLTAGHGMTEVGA [synthetic TbtA leader peptide derivatized with fluorescein isothiocyanate (FITC) at the N-terminus] showed a Kd of around 20000 nM.

The target in another experiment is MBP-TbtD. Kind of experiment: fluorescence polarisation. The source holds these as a separate data set.
Molecule {FITC}-MDLNDLPMDVFELADSGVAVESLTAGHGMTEVGA [synthetic TbtA leader peptide derivatized with fluorescein isothiocyanate (FITC) at the N-terminus] showed a dissociation constant Kd of around 140 nM.
